Data published in patent US20220348939.

Test system: Type I-F Csy (Cascade) complex with Cas2-3 (cas1, cas3, csy1-csy4), endogenous (Zymomonas mobilis ZM4)
Assay: cell_activity

## AUCUUGACUCCCUCCAUGCACUUAAAAAAUCU / ATCTTGACTCCCTCCATGCACTTAAAAAATCT / AGATTTTTTAAGTGCATGGAGGGAGTCAAGAT [ZMO0038 His-tag crRNA spacer ; ZMO0038 start codon target]
PAM 5'-TCC-3', His-tag insertion efficiency
  activity: 100%

## AUGCCGCUUUCGAUCAGGCCGCCGCCAAGAUU / ATGCCGCTTTCGATCAGGCCGCCGCCAAGATT / AATCTTGGCGGCGGCCTGATCGAAAGCGGCAT [ZMO0038 knockout crRNA spacer ; ZMO0038 target]
PAM 5'-CCC-3', knockout efficiency
  activity: 100%
